# Source: US20040192900A1
# Assays:
# Fc-CD22 [1] = target: Fc-CD22 (UniProt P20273); test: SPR (BIAcore 2000); inhibition of 2nd mAb binding to Fc-CD22 by prior saturation with G5/44 (competitor G5/44)
# Fc-CD22 [2] = target: Fc-CD22 (UniProt P20273); test: SPR (BIAcore 2000); Fc-CD22 pre-saturated with G5/44 (competitor G5/44); combined response of G5/44 and 2nd mAb
# Fc-CD22 [3] = target: Fc-CD22 (UniProt P20273); test: SPR (BIAcore 2000); 2nd mAb on Fc-CD22 pre-saturated with G5/44 (competitor G5/44)
# Fc-CD22 [4] = target: Fc-CD22 (UniProt P20273); test: SPR (BIAcore 2000); 2nd mAb on Fc-CD22 without G5/44
Substance,Inhibition by G544 (%) (Fc-CD22 [1]),Response 2 after 2nd Anti-CD22 mAb (RU) (Fc-CD22 [2]),Response 3 (Response 2-1) (RU) (Fc-CD22 [3]),Response 3 adjusted for OFF rate of G544 (RU) (Fc-CD22 [3]),Binding of 2nd mAb without G544 adjusted for background (RU) (Fc-CD22 [4])
"anti-CD19 antibody BU12 (Celltech, Slough, UK)",0%,603 RU,-83.5 RU,0 RU,–
anti-CD22 mAb 4KB128 (Dako Corp) (antibody),0%,1340 RU,652 RU,736 RU,739 RU
anti-CD22 mAb HD239 (Santa Cruz Biotech) (antibody),91%,629 RU,-81.8 RU,1.7 RU,19.3 RU
"anti-CD22 mAb SHCL-1, Leu 14 (Becton Dickinson) (antibody)",69%,580 RU,-74.5 RU,9 RU,29.3 RU
anti-CD22 mAb To 15 (Dako Corp) (antibody),7%,1160 RU,487 RU,570 RU,615 RU
